# Results published in publication PMC5409479.
# Tests used:
# [1] = target: wild-type human glucagon-like peptide-1 receptor (double c-Myc, V5) (human) (UniProt P43220)
# [2] = target: human GLP-1R A70azF (human) (UniProt P43220)
# [3] = target: human GLP-1R E125azF (human) (UniProt P43220)
# [4] = target: human GLP-1R E127azF (human) (UniProt P43220)
# [5] = target: human GLP-1R E138azF (human) (UniProt P43220)
# [6] = target: human GLP-1R E68azF (human) (UniProt P43220)
# [7] = target: human GLP-1R F103azF (human) (UniProt P43220)
# [8] = target: human GLP-1R F61azF (human) (UniProt P43220)
# [9] = target: human GLP-1R F80azF (human) (UniProt P43220)
# [10] = target: human GLP-1R L118azF (human) (UniProt P43220)
# [11] = target: human GLP-1R L123azF (human) (UniProt P43220)
# [12] = target: human GLP-1R L32azF (human) (UniProt P43220)
# [13] = target: human GLP-1R L89azF (human) (UniProt P43220)
# [14] = target: human GLP-1R P119azF (human) (UniProt P43220)
# [15] = target: human GLP-1R P90azF (human) (UniProt P43220)
# [16] = target: human GLP-1R R121azF (human) (UniProt P43220)
# [17] = target: human GLP-1R R134azF (human) (UniProt P43220)
# [18] = target: human GLP-1R R40azF (human) (UniProt P43220)
# [19] = target: human GLP-1R S116azF (human) (UniProt P43220)
# [20] = target: human GLP-1R S117azF (human) (UniProt P43220)
# [21] = target: human GLP-1R S124azF (human) (UniProt P43220)
# [22] = target: human GLP-1R S135azF (human) (UniProt P43220)
# [23] = target: human GLP-1R S31azF (human) (UniProt P43220)
# [24] = target: human GLP-1R T35azF (human) (UniProt P43220)
# [25] = target: human GLP-1R V30azF (human) (UniProt P43220)
# [26] = target: human GLP-1R V36azF (human) (UniProt P43220)
# [27] = target: human GLP-1R W33azF (human) (UniProt P43220)
# [28] = target: human GLP-1R W39azF (human) (UniProt P43220)
# [29] = target: human GLP-1R W91azF (human) (UniProt P43220)
# [30] = target: human GLP-1R Y101azF (human) (UniProt P43220)
# [31] = target: human GLP-1R Y42azF (human) (UniProt P43220)
# [32] = target: human GLP-1R Y69azF (human) (UniProt P43220)
# [33] = target: human GLP-1R Y88azF (human) (UniProt P43220)
# [34] = target: wild-type human glucagon-like peptide-1 receptor (double c-Myc, V5) (human) (UniProt P43220); remark: listed apart in the source
# Chain of wild-type human glucagon-like peptide-1 receptor (double c-Myc, V5) (human) (P43220 24-463): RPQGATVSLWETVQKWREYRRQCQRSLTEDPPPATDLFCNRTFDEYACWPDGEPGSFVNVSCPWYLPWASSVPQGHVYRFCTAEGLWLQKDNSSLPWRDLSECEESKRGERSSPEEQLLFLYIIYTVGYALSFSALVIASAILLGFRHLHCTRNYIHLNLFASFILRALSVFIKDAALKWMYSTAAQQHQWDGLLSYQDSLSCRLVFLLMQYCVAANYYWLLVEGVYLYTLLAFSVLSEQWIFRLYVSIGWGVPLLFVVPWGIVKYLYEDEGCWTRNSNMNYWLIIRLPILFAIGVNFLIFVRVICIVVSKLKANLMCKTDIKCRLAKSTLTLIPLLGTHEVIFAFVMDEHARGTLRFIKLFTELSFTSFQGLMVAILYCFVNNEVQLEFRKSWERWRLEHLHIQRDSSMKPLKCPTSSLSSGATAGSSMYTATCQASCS
# Chain of human GLP-1R E127azF (human) (P43220 24-463 E127F): as the sequence (P43220 24-463) above, with E104F counted along it
# Chain of human GLP-1R R40azF (human) (P43220 other isoform, or with tags, fused parts or gaps): as the sequence (P43220 24-463) above, with R17F counted along it
# Chain of human GLP-1R L118azF (human) (P43220 24-463 L118F): as the sequence (P43220 24-463) above, with L95F counted along it
# Chain of human GLP-1R Y42azF (human) (P43220 other isoform, or with tags, fused parts or gaps): as the sequence (P43220 24-463) above, with Y19F counted along it
# Chain of human GLP-1R L32azF (human) (P43220 other isoform, or with tags, fused parts or gaps): as the sequence (P43220 24-463) above, with L9F counted along it
# Chain of human GLP-1R S31azF (human) (P43220 other isoform, or with tags, fused parts or gaps): as the sequence (P43220 24-463) above, with S8F counted along it
# Chain of human GLP-1R F80azF (human) (P43220 24-463): as the sequence (P43220 24-463) above
# Chain of human GLP-1R F103azF (human) (P43220 24-463): as above
# Chain of human GLP-1R F61azF (human) (P43220 24-463): as above
# Chain of human GLP-1R V36azF (human) (P43220 other isoform, or with tags, fused parts or gaps): as the sequence (P43220 24-463) above, with V13F counted along it
# Chain of human GLP-1R E68azF (human) (P43220 24-463 E68F): as the sequence (P43220 24-463) above, with E45F counted along it
# Chain of human GLP-1R S135azF (human) (P43220 24-463 S135F): as the sequence (P43220 24-463) above, with S112F counted along it
# Chain of human GLP-1R R121azF (human) (P43220 24-463 R121F): as the sequence (P43220 24-463) above, with R98F counted along it
# Chain of human GLP-1R S117azF (human) (P43220 24-463 S117F): as the sequence (P43220 24-463) above, with S94F counted along it
# Chain of human GLP-1R L89azF (human) (P43220 24-463 L89F): as the sequence (P43220 24-463) above, with L66F counted along it
# Chain of human GLP-1R Y88azF (human) (P43220 24-463 Y88F): as the sequence (P43220 24-463) above, with Y65F counted along it
# Chain of human GLP-1R L123azF (human) (P43220 24-463 L123F): as the sequence (P43220 24-463) above, with L100F counted along it
# Chain of human GLP-1R R134azF (human) (P43220 24-463 R134F): as the sequence (P43220 24-463) above, with R111F counted along it
# Chain of human GLP-1R T35azF (human) (P43220 other isoform, or with tags, fused parts or gaps): as the sequence (P43220 24-463) above, with T12F counted along it
# Chain of human GLP-1R P119azF (human) (P43220 24-463 P119F): as the sequence (P43220 24-463) above, with P96F counted along it
# Chain of human GLP-1R W91azF (human) (P43220 24-463 W91F): as the sequence (P43220 24-463) above, with W68F counted along it
# Chain of human GLP-1R Y101azF (human) (P43220 24-463 Y101F): as the sequence (P43220 24-463) above, with Y78F counted along it
# Chain of human GLP-1R P90azF (human) (P43220 24-463 P90F): as the sequence (P43220 24-463) above, with P67F counted along it
# Chain of human GLP-1R S116azF (human) (P43220 24-463 S116F): as the sequence (P43220 24-463) above, with S93F counted along it
# Chain of human GLP-1R E138azF (human) (P43220 24-463 E138F): as the sequence (P43220 24-463) above, with E115F counted along it
# Chain of human GLP-1R S124azF (human) (P43220 24-463 S124F): as the sequence (P43220 24-463) above, with S101F counted along it
# Chain of human GLP-1R W33azF (human) (P43220 other isoform, or with tags, fused parts or gaps): as the sequence (P43220 24-463) above, with W10F counted along it
# Chain of human GLP-1R V30azF (human) (P43220 other isoform, or with tags, fused parts or gaps): as the sequence (P43220 24-463) above, with V7F counted along it
# Chain of human GLP-1R E125azF (human) (P43220 24-463 E125F): as the sequence (P43220 24-463) above, with E102F counted along it
# Chain of human GLP-1R W39azF (human) (P43220 other isoform, or with tags, fused parts or gaps): as the sequence (P43220 24-463) above, with W16F counted along it
# Chain of human GLP-1R A70azF (human) (P43220 24-463 A70F): as the sequence (P43220 24-463) above, with A47F counted along it
# Chain of human GLP-1R Y69azF (human) (P43220 24-463 Y69F): as the sequence (P43220 24-463) above, with Y46F counted along it
substance,measurement,setting,value
fluorescein(Lys-20)-exendin-4 (peptide),"cAMP accumulation in HEK293T cells transiently expressing the human GLP-1R, pEC50",[1],9.3 -log10 M
exendin-4 (from UniProt P26349 48-87) (peptide),"exendin-4-mediated cAMP accumulation in HEK293T cells (+azF), pEC50",[2],9.1 -log10 M
same,"exendin-4-mediated cAMP accumulation in HEK293T cells (+azF), pEC50",[3],10.3 -log10 M
same,"exendin-4-mediated cAMP accumulation in HEK293T cells (+azF), pEC50",[4],10.8 -log10 M
same,"exendin-4-mediated cAMP accumulation in HEK293T cells (+azF), pEC50",[5],11 -log10 M
same,"exendin-4-mediated cAMP accumulation in HEK293T cells (+azF), pEC50",[6],11.4 -log10 M
same,"exendin-4-mediated cAMP accumulation in HEK293T cells (+azF), pEC50",[7],11.4 -log10 M
same,"exendin-4-mediated cAMP accumulation in HEK293T cells (+azF), pEC50",[8],11.3 -log10 M
same,"exendin-4-mediated cAMP accumulation in HEK293T cells (+azF), pEC50",[9],11.3 -log10 M
same,"exendin-4-mediated cAMP accumulation in HEK293T cells (+azF), pEC50",[10],11.5 -log10 M
same,"exendin-4-mediated cAMP accumulation in HEK293T cells (+azF), pEC50",[11],11.2 -log10 M
same,"exendin-4-mediated cAMP accumulation in HEK293T cells (+azF), pEC50",[12],11.1 -log10 M
same,"exendin-4-mediated cAMP accumulation in HEK293T cells (+azF), pEC50",[13],9.6 -log10 M
same,"exendin-4-mediated cAMP accumulation in HEK293T cells (+azF), pEC50",[14],11.4 -log10 M
same,"exendin-4-mediated cAMP accumulation in HEK293T cells (+azF), pEC50",[15],9.9 -log10 M
same,"exendin-4-mediated cAMP accumulation in HEK293T cells (+azF), pEC50",[16],10 -log10 M
same,"exendin-4-mediated cAMP accumulation in HEK293T cells (+azF), pEC50",[17],11.1 -log10 M
same,"exendin-4-mediated cAMP accumulation in HEK293T cells (+azF), pEC50",[18],11.5 -log10 M
same,"exendin-4-mediated cAMP accumulation in HEK293T cells (+azF), pEC50",[19],11.4 -log10 M
same,"exendin-4-mediated cAMP accumulation in HEK293T cells (+azF), pEC50",[20],11.1 -log10 M
same,"exendin-4-mediated cAMP accumulation in HEK293T cells (+azF), pEC50",[21],11.4 -log10 M
same,"exendin-4-mediated cAMP accumulation in HEK293T cells (+azF), pEC50",[22],11.5 -log10 M
same,"exendin-4-mediated cAMP accumulation in HEK293T cells (+azF), pEC50",[23],11.1 -log10 M
same,"exendin-4-mediated cAMP accumulation in HEK293T cells (+azF), pEC50",[24],9.5 -log10 M
same,"exendin-4-mediated cAMP accumulation in HEK293T cells (+azF), pEC50",[25],11.2 -log10 M
same,"exendin-4-mediated cAMP accumulation in HEK293T cells (+azF), pEC50",[26],11.4 -log10 M
same,"exendin-4-mediated cAMP accumulation in HEK293T cells (+azF), pEC50",[27],11.4 -log10 M
same,"exendin-4-mediated cAMP accumulation in HEK293T cells (+azF), pEC50",[28],10.6 -log10 M
same,"exendin-4-mediated cAMP accumulation in HEK293T cells (+azF), pEC50",[29],11.5 -log10 M
same,"exendin-4-mediated cAMP accumulation in HEK293T cells (+azF), pEC50",[30],11.5 -log10 M
same,"exendin-4-mediated cAMP accumulation in HEK293T cells (+azF), pEC50",[31],10.6 -log10 M
same,"exendin-4-mediated cAMP accumulation in HEK293T cells (+azF), pEC50",[32],10.8 -log10 M
same,"exendin-4-mediated cAMP accumulation in HEK293T cells (+azF), pEC50",[33],10.6 -log10 M
same,"exendin-4-mediated cAMP accumulation in HEK293T cells, pEC50",[34],10.8 -log10 M
